Test results as given in patent US12228572B2, “Enhanced expression of polo-like kinase 3 (PLK3) in human immunodeficiency virus (HIV)-infected cells” (priority 2021, dated 2025).
Values joined by “and” are separate entries in the source; they are usually repeats but may differ in a detail not shown here. Identical values can stand only once.

How the values were obtained:
HIV-1BaL = assay: Infectivity of supernatant from transfected 293T cells treated with pBaL, on TZM-bl cells; assay type: cell-based; conditions: 48 hours after transfection
HIV-1 [1] = test system: HIV-1
HIV-1 [2] = test system: HIV-1; remark: listed apart in the source
HIV-1 [3] = conditions: overexpression of the PLK3 protein
Text: Specific test steps are as follows. All RNAs were extracted for qPCR to measure the Gag transcription level of HIV-1 (FIG. 4). Cells were collected for a flow cytometry test, and the expression level of an HIV-1 p24 protein was detected by using specific antibodies (FIG. 5).

HIV-1 [4] = conditions: overexpression of the PLK3 protein; remark: listed apart in the source
HIV-189.6 = assay: Infectivity of supernatant from transfected 293T cells treated with p89.6, on TZM-bl cells; assay type: cell-based; conditions: 48 hours after transfection
SIVagm = assay: Infectivity of supernatant from transfected 293T cells treated with pSIVagm, on TZM-bl cells; assay type: cell-based; conditions: 48 hours after transfection
HIV-2ROD = assay: Infectivity of supernatant from transfected 293T cells treated with pHIV-2ROD, on TZM-bl cells; assay type: cell-based; conditions: 48 hours after transfection
HIV-1 [5] = conditions: overexpression of the PLK3 protein; remark: listed apart in the source
HIV-1AD8 = assay: Infectivity of supernatant from transfected 293T cells treated with pAD8, on TZM-bl cells; assay type: cell-based; conditions: 48 hours after transfection
hepatitis B virus (HBV) = assay: HBs ELISA of HBV virus particles in supernatant of 293T cells treated with HBV replicator; assay type: cell-based; conditions: overexpression in 293T cells, HBV driven by CMV promoter, 48 hours

B1: PLK3 protein: human PLK3 protein overexpressed from a 3× FLAG-labeled PLK3 protein expression vector (protein, UniProt Q9H4B4 1-646, looked up)
chain: MEPAAGFLSPRPFQRAAAAPAPPAGPGPPPSALRGPELEMLAGLPTSDPGRLITDPRSGRTYLKGRLLGKGGFARCYEATDTETGSAYAVKVIPQSRVAKPHQREKILNEIELHRDLQHRHIVRFSHHFEDADNIYIFLELCSRKSLAHIWKARHTLLEPEVRYYLRQILSGLKYLHQRGILHRDLKLGNFFITENMELKVGDFGLAARLEPPEQRKKTICGTPNYVAPEVLLRQGHGPEADVWSLGCVMYTLLCGSPPFETADLKETYRCIKQVHYTLPASLSLPARQLLAAILRASPRDRPSIDQILRHDFFTKGYTPDRLPISSCVTVPDLTPPNPARSLFAKVTKSLFGRKKKSKNHAQERDEVSGLVSGLMRTSVGHQDARPEAPAASGPAPVSLVETAPEDSSPRGTLASSGDGFEEGLTVATVVESALCALRNCIAFMPPAEQNPAPLAQPEPLVWVSKWVDYSNKFGFGYQLSSRRVAVLFNDGTHMALSANRKTVHYNPTSTKHFSFSVGAVPRALQPQLGILRYFASYMEQHLMKGGDLPSVEEVEVPAPPLLLQWVKTDQALLMLFSDGTVQVNFYGDHTKLILSGWEPLLVTFVARNRSACTYLASHLRQLGCSPDLRQRLRYALRLLRDRSPA
modifications: full-length 3xFLAG tag
notes: human PLK3 protein overexpressed from a 3× FLAG-labeled PLK3 protein expression vector
ability to limit infection with HIV-1BaL (HIV-1BaL): has an ability to limit infection | HIV infectivity reduced to fraction of original level (HIV-1 [1]; 293T cells with vs without PLK3 protein expression, maximum reduction, 48 hours after transfection): about 1/150 | HIV-1 infectivity as fraction of that of the negative control group (HIV-1 [1]; different expression amounts, 293T cells, pNL4.3, 48 hours): 1/11 and 1/115 | ability to block HIV-1 infection (HIV-1 [2]): extremely strong ability to block HIV-1 infection | transcription level of virus Gag in cells (HIV-1 [3]): not affected | virus Gag protein level (HIV-1 [3]): obviously reduced | content of core antigen p24 of virus particles in cultured supernatant (HIV-1 [4]): greatly decreased | ability to limit infection with HIV-189.6 (HIV-189.6): has an ability to limit infection | ability to limit infection with SIVagm (SIVagm): has an ability to limit infection | ability to limit infection with HIV-2ROD (HIV-2ROD): has an ability to limit infection | content of genomic RNA of the virus particles in cultured supernatant (HIV-1 [5]): greatly decreased | ability to limit infection with HIV-1AD8 (HIV-1AD8): has an ability to limit infection | replication and release of the HBV (hepatitis B virus (HBV)): not affected
